Data published in the supplement of paper PMC10567573.

B1: OAS1 (parent)
chain: YIGTHEYPHFSHRPSTLQAASTPQ

Variants of: B1
Test: protein stability index of a GFP-peptide fusion (GPS, HEK-293T) (PSI 1-6); higher = more stable
Details: c terminus: a fixed tail appended
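Note: lentivirally expressed fusions sorted by FACS into six bins by GFP to DsRed ratio, PSI derived from sequencing read proportions per bin multiplied by bin number.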

Variant	protein stability index
YIGTHEYPHFSHRPTTLQAASTPQ [S15T]	1.94
YIGTHEYPHFSHRCSTLQAASTPQ [P14C]	1.78
YIGTHEYPHFSHRKSTLQAASTPQ [P14K]	2.13
YIGTHEYPHFSHRGSTLQAASTPQ [P14G]	2.21
YIGTHEYPHFSHRHSTLQAASTPQ [P14H]	2.1
YIGTHEYPHFSHRRSTLQAASTPQ [P14R]	1.9
YIGTHEYPHFSHRYSTLQAASTPQ [P14Y]	2.09
YIGTHEYPHFSHRMSTLQAASTPQ [P14M]	1.74
YIGTHEYPHFSHRLSTLQAASTPQ [P14L]	1.7
YIGTHEYPHFSHRVSTLQAASTPQ [P14V]	2.48
YIGTHEYPHFSHRASTLQAASTPQ [P14A]	1.81
YIGTHEYPHFSHRNSTLQAASTPQ [P14N]	2.1
YIGTHEYPHFSHRTSTLQAASTPQ [P14T]	1.98
YIGTHEYPHFSHRSSTLQAASTPQ [P14S]	1.64
YIGTHEYPHFSHRDSTLQAASTPQ [P14D]	2.1
YIGTHEYPHFSHRWSTLQAASTPQ [P14W]	2.81
YIGTHEYPHFSHRISTLQAASTPQ [P14I]	1.72
YIGTHEYPHFSHRFSTLQAASTPQ [P14F]	1.49
YIGTHEYPHFSHRESTLQAASTPQ [P14E]	2.17
YIGTHEYPHFSHRQSTLQAASTPQ [P14Q]	2.22
YIGTHEIPHFSHRPSTLQAASTPQ [Y7I]	2.44
YIGTHETPHFSHRPSTLQAASTPQ [Y7T]	2.3
YIGTHECPHFSHRPSTLQAASTPQ [Y7C]	2.49
YIGTHEQPHFSHRPSTLQAASTPQ [Y7Q]	2.65

Variant	protein stability index
YIGTHEMPHFSHRPSTLQAASTPQ [Y7M]	2.37
YIGTHEEPHFSHRPSTLQAASTPQ [Y7E]	3.16
YIGTHENPHFSHRPSTLQAASTPQ [Y7N]	2.15
YIGTHESPHFSHRPSTLQAASTPQ [Y7S]	2.55
YIGTHERPHFSHRPSTLQAASTPQ [Y7R]	2.12
YIGTHEGPHFSHRPSTLQAASTPQ [Y7G]	1.98
YIGTHEHPHFSHRPSTLQAASTPQ [Y7H]	2.18
YIGTHEAPHFSHRPSTLQAASTPQ [Y7A]	2.23
YIGTHEVPHFSHRPSTLQAASTPQ [Y7V]	2.12
YIGTHEFPHFSHRPSTLQAASTPQ [Y7F]	1.68
YIGTHEKPHFSHRPSTLQAASTPQ [Y7K]	3.34
YIGTHEDPHFSHRPSTLQAASTPQ [Y7D]	3.16
YIGTHELPHFSHRPSTLQAASTPQ [Y7L]	2.06
YIGTHEYPHFSMRPSTLQAASTPQ [H12M]	1.68
YIGTHEYPHFSERPSTLQAASTPQ [H12E]	2.25
YIGTHEYPHFSFRPSTLQAASTPQ [H12F]	2.21
YIGTHEYPHFSLRPSTLQAASTPQ [H12L]	2.39
YIGTHEYPHFSQRPSTLQAASTPQ [H12Q]	2.23
YIGTHEYPHFSPRPSTLQAASTPQ [H12P]	2.15
YIGTHEYPHFSCRPSTLQAASTPQ [H12C]	2.64
YIGTHEYPHFSKRPSTLQAASTPQ [H12K]	2.07
YIGTHEYPHFSDRPSTLQAASTPQ [H12D]	2.49
YIGTHEYPHFSTRPSTLQAASTPQ [H12T]	2.03
YIGTHEYPHFSIRPSTLQAASTPQ [H12I]	1.72

Variant	protein stability index
YIGTHEYPHFSNRPSTLQAASTPQ [H12N]	2.12
YIGTHEYPHFSSRPSTLQAASTPQ [H12S]	1.83
YIGTHEYPHFSYRPSTLQAASTPQ [H12Y]	1.92
YIGTHEYPHFSARPSTLQAASTPQ [H12A]	1.97
YIGTHEYPHFSVRPSTLQAASTPQ [H12V]	1.93
YIGTHEYPHFSGRPSTLQAASTPQ [H12G]	1.71
YIGTHEYPHFSWRPSTLQAASTPQ [H12W]	1.46
YIGTHEYPHFSRRPSTLQAASTPQ [H12R]	2.55
YIGTHEYPHASHRPSTLQAASTPQ [F10A]	2.57
YIGTHEYPHDSHRPSTLQAASTPQ [F10D]	3.14
YIGTHEYPHESHRPSTLQAASTPQ [F10E]	3.25
YIGTHEYPHLSHRPSTLQAASTPQ [F10L]	2.53
YIGTHEYPHISHRPSTLQAASTPQ [F10I]	2.27
YIGTHEYPHYSHRPSTLQAASTPQ [F10Y]	1.79
YIGTHEYPHCSHRPSTLQAASTPQ [F10C]	2.24
YIGTHEYPHVSHRPSTLQAASTPQ [F10V]	2.12
YIGTHEYPHQSHRPSTLQAASTPQ [F10Q]	2.41
YIGTHEYPHGSHRPSTLQAASTPQ [F10G]	2.88
YIGTHEYPHWSHRPSTLQAASTPQ [F10W]	1.89
YIGTHEYPHRSHRPSTLQAASTPQ [F10R]	2.19
YIGTHEYPHMSHRPSTLQAASTPQ [F10M]	2.73
YIGTHEYPHSSHRPSTLQAASTPQ [F10S]	2.9
YIGTHEYPHKSHRPSTLQAASTPQ [F10K]	2.73
YIGTHEYPHHSHRPSTLQAASTPQ [F10H]	2.56

Variant	protein stability index
YIGTHEYPHNSHRPSTLQAASTPQ [F10N]	2.43
YIGTHEYPHPSHRPSTLQAASTPQ [F10P]	2.06
YIGTHEYPHTSHRPSTLQAASTPQ [F10T]	2.48
YIGTHEYPSFSHRPSTLQAASTPQ [H9S]	2.09
YIGTHEYPNFSHRPSTLQAASTPQ [H9N]	2.4
YIGTHEYPRFSHRPSTLQAASTPQ [H9R]	2.08
YIGTHEYPIFSHRPSTLQAASTPQ [H9I]	2.18
YIGTHEYPCFSHRPSTLQAASTPQ [H9C]	1.48
YIGTHEYPKFSHRPSTLQAASTPQ [H9K]	1.94
YIGTHEYPEFSHRPSTLQAASTPQ [H9E]	3.17
YIGTHEYPLFSHRPSTLQAASTPQ [H9L]	1.67
YIGTHEYPMFSHRPSTLQAASTPQ [H9M]	2.33
YIGTHEYPQFSHRPSTLQAASTPQ [H9Q]	2.12
YIGTHEYPDFSHRPSTLQAASTPQ [H9D]	2.75
YIGTHEYPFFSHRPSTLQAASTPQ [H9F]	2.2
YIGTHEYPPFSHRPSTLQAASTPQ [H9P]	1.44
YIGTHEYPWFSHRPSTLQAASTPQ [H9W]	3.41
YIGTHEYPGFSHRPSTLQAASTPQ [H9G]	1.95
YIGTHEYPTFSHRPSTLQAASTPQ [H9T]	2.09
YIGTHEYPVFSHRPSTLQAASTPQ [H9V]	1.78
YIGTHEYPYFSHRPSTLQAASTPQ [H9Y]	2.83
YIGTHEYPAFSHRPSTLQAASTPQ [H9A]	1.87
